# Reference: publication PMC5445078, “Probing the Roles of Calcium-Binding Sites during the Folding of Human Peptidylarginine Deiminase 4” (Scientific Reports, 2017)
# B1: PAD4 Ca1_site mutant (Q349A/E353A/E411A) (enzyme, human, UniProt Q9UM07 1-663, looked up)
# chain: MAQGTLIRVTPEQPTHAVCVLGTLTQLDICSSAPEDCTSFSINASPGVVVDIAHGPPAKKKSTGSSTWPLDPGVEVTLTMKVASGSTGDQKVQISYYGPKTPPVKALLYLTGVEISLCADITRTGKVKPTRAVKDQRTWTWGPCGQGAILLVNCDRDNLESSAMDCEDDEVLDSEDLQDMSLMTLSTKTPKDFFTNHTLVLHVARSEMDKVRVFQATRGKLSSKCSVVLGPKWPSHYLMVPGGKHNMDFYVEALAFPDTDFPGLITLTISLLDTSNLELPEAVVFQDSVVFRVAPWIMTPNTQPPQEVYACSIFENEDFLKSVTTLAMKAKCKLTICPEEENMDDQWMADEMAIGYIQAPHKTLPVVFDSPRNRGLKEFPIKRVMGPDFGYVTRGPQTGGISGLDSFGNLAVSPPVTVRGKEYPLGRILFGDSCYPSNDSRQMHQALQDFLSAQQVQAPVKLYSDWLSVGHVDEFLSFVPAPDRKGFRLLLASPRSCYKLFQEQQNEGHGEALLFEGIKKKKQQKIKNILSNKTLREHNSFVERCIDWNRELLKRELGLAESDIIDIPQLFKLKEFSKAEAFFPNMVNMLVLGKHLGIPKPFGPVINGRCCLEEKVCSLLEPLGLQCTFINDFFTYHIRHGEVHCGTNVRRKPFSFKWWNMVP
# notes: human peptidylarginine deiminase 4 (PAD4), cDNA cloned into pQE30; source: E. coli JM109, purified (Ni-NTA)
# B2: PAD4 Ca2_site mutant (E351A/D369A/N373A) (enzyme, human, UniProt Q9UM07 1-663, looked up)
# chain: MAQGTLIRVTPEQPTHAVCVLGTLTQLDICSSAPEDCTSFSINASPGVVVDIAHGPPAKKKSTGSSTWPLDPGVEVTLTMKVASGSTGDQKVQISYYGPKTPPVKALLYLTGVEISLCADITRTGKVKPTRAVKDQRTWTWGPCGQGAILLVNCDRDNLESSAMDCEDDEVLDSEDLQDMSLMTLSTKTPKDFFTNHTLVLHVARSEMDKVRVFQATRGKLSSKCSVVLGPKWPSHYLMVPGGKHNMDFYVEALAFPDTDFPGLITLTISLLDTSNLELPEAVVFQDSVVFRVAPWIMTPNTQPPQEVYACSIFENEDFLKSVTTLAMKAKCKLTICPEEENMDDQWMQDAMEIGYIQAPHKTLPVVFASPRARGLKEFPIKRVMGPDFGYVTRGPQTGGISGLDSFGNLEVSPPVTVRGKEYPLGRILFGDSCYPSNDSRQMHQALQDFLSAQQVQAPVKLYSDWLSVGHVDEFLSFVPAPDRKGFRLLLASPRSCYKLFQEQQNEGHGEALLFEGIKKKKQQKIKNILSNKTLREHNSFVERCIDWNRELLKRELGLAESDIIDIPQLFKLKEFSKAEAFFPNMVNMLVLGKHLGIPKPFGPVINGRCCLEEKVCSLLEPLGLQCTFINDFFTYHIRHGEVHCGTNVRRKPFSFKWWNMVP
# notes: as for B1
# B3: PAD4 Ca3_site mutant (N153A/D155A/D157A/D165A/D176A/D179A) (enzyme, human, UniProt Q9UM07 1-663, looked up)
# chain: MAQGTLIRVTPEQPTHAVCVLGTLTQLDICSSAPEDCTSFSINASPGVVVDIAHGPPAKKKSTGSSTWPLDPGVEVTLTMKVASGSTGDQKVQISYYGPKTPPVKALLYLTGVEISLCADITRTGKVKPTRAVKDQRTWTWGPCGQGAILLVACARANLESSAMACEDDEVLDSEALQAMSLMTLSTKTPKDFFTNHTLVLHVARSEMDKVRVFQATRGKLSSKCSVVLGPKWPSHYLMVPGGKHNMDFYVEALAFPDTDFPGLITLTISLLDTSNLELPEAVVFQDSVVFRVAPWIMTPNTQPPQEVYACSIFENEDFLKSVTTLAMKAKCKLTICPEEENMDDQWMQDEMEIGYIQAPHKTLPVVFDSPRNRGLKEFPIKRVMGPDFGYVTRGPQTGGISGLDSFGNLEVSPPVTVRGKEYPLGRILFGDSCYPSNDSRQMHQALQDFLSAQQVQAPVKLYSDWLSVGHVDEFLSFVPAPDRKGFRLLLASPRSCYKLFQEQQNEGHGEALLFEGIKKKKQQKIKNILSNKTLREHNSFVERCIDWNRELLKRELGLAESDIIDIPQLFKLKEFSKAEAFFPNMVNMLVLGKHLGIPKPFGPVINGRCCLEEKVCSLLEPLGLQCTFINDFFTYHIRHGEVHCGTNVRRKPFSFKWWNMVP
# notes: as for B1
# B4: PAD4 Ca4_site mutant (D155A/D157A/D179A/D388A) (enzyme, human, UniProt Q9UM07 1-663, looked up)
# chain: MAQGTLIRVTPEQPTHAVCVLGTLTQLDICSSAPEDCTSFSINASPGVVVDIAHGPPAKKKSTGSSTWPLDPGVEVTLTMKVASGSTGDQKVQISYYGPKTPPVKALLYLTGVEISLCADITRTGKVKPTRAVKDQRTWTWGPCGQGAILLVNCARANLESSAMDCEDDEVLDSEDLQAMSLMTLSTKTPKDFFTNHTLVLHVARSEMDKVRVFQATRGKLSSKCSVVLGPKWPSHYLMVPGGKHNMDFYVEALAFPDTDFPGLITLTISLLDTSNLELPEAVVFQDSVVFRVAPWIMTPNTQPPQEVYACSIFENEDFLKSVTTLAMKAKCKLTICPEEENMDDQWMQDEMEIGYIQAPHKTLPVVFDSPRNRGLKEFPIKRVMGPAFGYVTRGPQTGGISGLDSFGNLEVSPPVTVRGKEYPLGRILFGDSCYPSNDSRQMHQALQDFLSAQQVQAPVKLYSDWLSVGHVDEFLSFVPAPDRKGFRLLLASPRSCYKLFQEQQNEGHGEALLFEGIKKKKQQKIKNILSNKTLREHNSFVERCIDWNRELLKRELGLAESDIIDIPQLFKLKEFSKAEAFFPNMVNMLVLGKHLGIPKPFGPVINGRCCLEEKVCSLLEPLGLQCTFINDFFTYHIRHGEVHCGTNVRRKPFSFKWWNMVP
# notes: as for B1
# B5: human PAD4 Ca1_site mutant (Q349A/E353A/E411A) (enzyme, UniProt Q9UM07 1-663, looked up)
# chain: MAQGTLIRVTPEQPTHAVCVLGTLTQLDICSSAPEDCTSFSINASPGVVVDIAHGPPAKKKSTGSSTWPLDPGVEVTLTMKVASGSTGDQKVQISYYGPKTPPVKALLYLTGVEISLCADITRTGKVKPTRAVKDQRTWTWGPCGQGAILLVNCDRDNLESSAMDCEDDEVLDSEDLQDMSLMTLSTKTPKDFFTNHTLVLHVARSEMDKVRVFQATRGKLSSKCSVVLGPKWPSHYLMVPGGKHNMDFYVEALAFPDTDFPGLITLTISLLDTSNLELPEAVVFQDSVVFRVAPWIMTPNTQPPQEVYACSIFENEDFLKSVTTLAMKAKCKLTICPEEENMDDQWMADEMAIGYIQAPHKTLPVVFDSPRNRGLKEFPIKRVMGPDFGYVTRGPQTGGISGLDSFGNLAVSPPVTVRGKEYPLGRILFGDSCYPSNDSRQMHQALQDFLSAQQVQAPVKLYSDWLSVGHVDEFLSFVPAPDRKGFRLLLASPRSCYKLFQEQQNEGHGEALLFEGIKKKKQQKIKNILSNKTLREHNSFVERCIDWNRELLKRELGLAESDIIDIPQLFKLKEFSKAEAFFPNMVNMLVLGKHLGIPKPFGPVINGRCCLEEKVCSLLEPLGLQCTFINDFFTYHIRHGEVHCGTNVRRKPFSFKWWNMVP
# notes: source: E. coli JM109, purified (Ni-NTA)
# B6: human PAD4 Ca2_site mutant (E351A/D369A/N373A) (enzyme, UniProt Q9UM07 1-663, looked up)
# chain: MAQGTLIRVTPEQPTHAVCVLGTLTQLDICSSAPEDCTSFSINASPGVVVDIAHGPPAKKKSTGSSTWPLDPGVEVTLTMKVASGSTGDQKVQISYYGPKTPPVKALLYLTGVEISLCADITRTGKVKPTRAVKDQRTWTWGPCGQGAILLVNCDRDNLESSAMDCEDDEVLDSEDLQDMSLMTLSTKTPKDFFTNHTLVLHVARSEMDKVRVFQATRGKLSSKCSVVLGPKWPSHYLMVPGGKHNMDFYVEALAFPDTDFPGLITLTISLLDTSNLELPEAVVFQDSVVFRVAPWIMTPNTQPPQEVYACSIFENEDFLKSVTTLAMKAKCKLTICPEEENMDDQWMQDAMEIGYIQAPHKTLPVVFASPRARGLKEFPIKRVMGPDFGYVTRGPQTGGISGLDSFGNLEVSPPVTVRGKEYPLGRILFGDSCYPSNDSRQMHQALQDFLSAQQVQAPVKLYSDWLSVGHVDEFLSFVPAPDRKGFRLLLASPRSCYKLFQEQQNEGHGEALLFEGIKKKKQQKIKNILSNKTLREHNSFVERCIDWNRELLKRELGLAESDIIDIPQLFKLKEFSKAEAFFPNMVNMLVLGKHLGIPKPFGPVINGRCCLEEKVCSLLEPLGLQCTFINDFFTYHIRHGEVHCGTNVRRKPFSFKWWNMVP
# notes: as for B5
# B7: human PAD4 Ca3_site mutant (N153A/D155A/D157A/D165A/D176A/D179A) (enzyme, UniProt Q9UM07 1-663, looked up)
# chain: MAQGTLIRVTPEQPTHAVCVLGTLTQLDICSSAPEDCTSFSINASPGVVVDIAHGPPAKKKSTGSSTWPLDPGVEVTLTMKVASGSTGDQKVQISYYGPKTPPVKALLYLTGVEISLCADITRTGKVKPTRAVKDQRTWTWGPCGQGAILLVACARANLESSAMACEDDEVLDSEALQAMSLMTLSTKTPKDFFTNHTLVLHVARSEMDKVRVFQATRGKLSSKCSVVLGPKWPSHYLMVPGGKHNMDFYVEALAFPDTDFPGLITLTISLLDTSNLELPEAVVFQDSVVFRVAPWIMTPNTQPPQEVYACSIFENEDFLKSVTTLAMKAKCKLTICPEEENMDDQWMQDEMEIGYIQAPHKTLPVVFDSPRNRGLKEFPIKRVMGPDFGYVTRGPQTGGISGLDSFGNLEVSPPVTVRGKEYPLGRILFGDSCYPSNDSRQMHQALQDFLSAQQVQAPVKLYSDWLSVGHVDEFLSFVPAPDRKGFRLLLASPRSCYKLFQEQQNEGHGEALLFEGIKKKKQQKIKNILSNKTLREHNSFVERCIDWNRELLKRELGLAESDIIDIPQLFKLKEFSKAEAFFPNMVNMLVLGKHLGIPKPFGPVINGRCCLEEKVCSLLEPLGLQCTFINDFFTYHIRHGEVHCGTNVRRKPFSFKWWNMVP
# notes: as for B5
# B8: human PAD4 Ca4_site mutant (D155A/D157A/D179A/D388A) (enzyme, UniProt Q9UM07 1-663, looked up)
# chain: MAQGTLIRVTPEQPTHAVCVLGTLTQLDICSSAPEDCTSFSINASPGVVVDIAHGPPAKKKSTGSSTWPLDPGVEVTLTMKVASGSTGDQKVQISYYGPKTPPVKALLYLTGVEISLCADITRTGKVKPTRAVKDQRTWTWGPCGQGAILLVNCARANLESSAMDCEDDEVLDSEDLQAMSLMTLSTKTPKDFFTNHTLVLHVARSEMDKVRVFQATRGKLSSKCSVVLGPKWPSHYLMVPGGKHNMDFYVEALAFPDTDFPGLITLTISLLDTSNLELPEAVVFQDSVVFRVAPWIMTPNTQPPQEVYACSIFENEDFLKSVTTLAMKAKCKLTICPEEENMDDQWMQDEMEIGYIQAPHKTLPVVFDSPRNRGLKEFPIKRVMGPAFGYVTRGPQTGGISGLDSFGNLEVSPPVTVRGKEYPLGRILFGDSCYPSNDSRQMHQALQDFLSAQQVQAPVKLYSDWLSVGHVDEFLSFVPAPDRKGFRLLLASPRSCYKLFQEQQNEGHGEALLFEGIKKKKQQKIKNILSNKTLREHNSFVERCIDWNRELLKRELGLAESDIIDIPQLFKLKEFSKAEAFFPNMVNMLVLGKHLGIPKPFGPVINGRCCLEEKVCSLLEPLGLQCTFINDFFTYHIRHGEVHCGTNVRRKPFSFKWWNMVP
# notes: as for B5
# Target: the molecule itself
# Assay: AUC; sedimentation velocity at three protein concentrations (0.1, 0.3 and 0.9 mg/ml), globally fit with SEDPHAT; dimer to monomers
row,Molecule,Kd [nM]
1,B1,160 ± 1
2,B2,150 ± 1
3,B3,160 ± 1
4,B4,410 ± 4

# Target: human PAD4 Ca5_site mutant (D168A/E252A) (human) (UniProt Q9UM07)
# Assay: AUC; sedimentation velocity, 20 °C, 42,000 rpm, absorbance at 280 nm, SEDFIT continuous size distribution; no urea, 10 mM Ca2+, 50 mM Tris-HCl pH 7.4; dimer to monomers
row,Molecule,stoichiometry N
1,human PAD4 Ca5_site mutant (D168A/E252A) (from UniProt Q9UM07 1-663) (enzyme),2

# Target: the molecule itself
# Assay: as above
row,Molecule,stoichiometry N
1,B5,2
2,B6,2
3,B7,2
4,B8,2
